This is an account of results in US20090031456A1 (MICHIGAN STATE UNIVERSITY, published 2009).

This experiment deals with AtMIN7-HA (Arabidopsis thaliana, UniProt F4IXW2 1-1739). The experiment in a line: transient co-expression in N. benthamiana leaves, pull-down and immunoblot. Background: A western blot detects proteins with antibodies after separation by electrophoresis.
Sequence of AtMIN7-HA (F4IXW2 other isoform, or with tags, fused parts or gaps limits assumed): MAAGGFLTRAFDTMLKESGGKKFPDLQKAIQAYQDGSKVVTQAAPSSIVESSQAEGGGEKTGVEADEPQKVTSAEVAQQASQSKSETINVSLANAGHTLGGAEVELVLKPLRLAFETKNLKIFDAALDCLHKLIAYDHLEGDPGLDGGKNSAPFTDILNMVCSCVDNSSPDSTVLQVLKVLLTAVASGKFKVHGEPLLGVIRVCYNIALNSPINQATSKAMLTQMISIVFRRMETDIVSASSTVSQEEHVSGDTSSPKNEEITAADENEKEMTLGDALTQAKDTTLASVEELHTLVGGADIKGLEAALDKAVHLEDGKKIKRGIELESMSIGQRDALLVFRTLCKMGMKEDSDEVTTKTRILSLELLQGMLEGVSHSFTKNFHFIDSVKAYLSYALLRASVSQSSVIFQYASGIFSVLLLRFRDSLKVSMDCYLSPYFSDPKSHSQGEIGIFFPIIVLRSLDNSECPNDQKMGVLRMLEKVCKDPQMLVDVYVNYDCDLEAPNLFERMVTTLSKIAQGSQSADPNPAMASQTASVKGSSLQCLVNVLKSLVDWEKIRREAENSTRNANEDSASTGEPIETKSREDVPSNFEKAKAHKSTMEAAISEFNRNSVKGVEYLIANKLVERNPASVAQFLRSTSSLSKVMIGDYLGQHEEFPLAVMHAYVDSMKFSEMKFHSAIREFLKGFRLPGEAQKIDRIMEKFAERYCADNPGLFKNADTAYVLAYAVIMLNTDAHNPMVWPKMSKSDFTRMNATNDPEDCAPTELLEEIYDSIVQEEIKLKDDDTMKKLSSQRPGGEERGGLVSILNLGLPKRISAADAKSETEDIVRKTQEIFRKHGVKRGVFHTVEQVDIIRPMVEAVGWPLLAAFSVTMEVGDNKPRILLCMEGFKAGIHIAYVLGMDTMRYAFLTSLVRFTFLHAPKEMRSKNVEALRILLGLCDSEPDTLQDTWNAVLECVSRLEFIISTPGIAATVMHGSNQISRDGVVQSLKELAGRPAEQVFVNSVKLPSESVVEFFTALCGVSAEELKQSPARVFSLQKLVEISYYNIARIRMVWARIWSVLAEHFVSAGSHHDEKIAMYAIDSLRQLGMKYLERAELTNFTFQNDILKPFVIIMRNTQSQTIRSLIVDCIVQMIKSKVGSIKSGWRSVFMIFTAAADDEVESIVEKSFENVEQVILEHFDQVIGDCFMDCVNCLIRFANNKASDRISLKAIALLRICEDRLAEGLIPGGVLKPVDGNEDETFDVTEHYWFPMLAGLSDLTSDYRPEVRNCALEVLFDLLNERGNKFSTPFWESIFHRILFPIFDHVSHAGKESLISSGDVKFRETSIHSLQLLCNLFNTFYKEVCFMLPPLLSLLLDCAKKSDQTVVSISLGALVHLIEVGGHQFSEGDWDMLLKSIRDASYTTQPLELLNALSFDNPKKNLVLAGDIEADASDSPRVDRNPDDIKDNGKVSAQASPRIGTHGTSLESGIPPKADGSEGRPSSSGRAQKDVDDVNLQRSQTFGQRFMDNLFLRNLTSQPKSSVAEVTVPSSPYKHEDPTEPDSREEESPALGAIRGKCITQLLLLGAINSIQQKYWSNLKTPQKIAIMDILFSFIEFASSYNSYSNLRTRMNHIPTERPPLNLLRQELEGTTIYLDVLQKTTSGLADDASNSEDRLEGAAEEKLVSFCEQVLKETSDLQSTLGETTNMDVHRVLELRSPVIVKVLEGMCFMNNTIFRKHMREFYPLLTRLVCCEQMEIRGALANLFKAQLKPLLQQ

B1: 6×His-HopM1 1-300 (other)
chain: MISSRIGGAGGVELSRVNQQHDTVPAQTAHPNAVTAGMNPPLTPDQSGSHATESSSAGAARLNVAARHTQLLQAFKAEHGTAPVSGAPMISSRAALLIGSLLQAEPLPFEVMAEKLSPERYQLKQFQGSDLQQRLEKFAQPGQIPDKAEVGQLIKGFAQSVADQLEHFQLMHDASPATVGQHAKADKATLAVSQTALGEYAGRASKAIGEGLSNSIASLDEHISALDLTLQDAEQGNKESLHADRQALVDAKTTLVGLHADFVKSPEAKRLASVAAHTQLDNVVSDLVTARNTVGGWKGA
notes: also called HopM1-300
Regarding B1, the binding result is “binds”.
